Results as given in patent US5260280A (priority 1989, dated 1993).
Several values for one entry are separate records, joined by “and”; a condition that tells them apart may be missing. Identical values can stand only once.

Legend:
[1] = molecular target: cholera toxin CT (Vibrio cholerae, UniProt P01556); format: cell-based
[2] = molecular target: cholera toxin B-subunits (Vibrio cholerae, UniProt P01556); format: binding
[3] = molecular target: enterotoxin CFA/I(LT-1) (Escherichia coli, UniProt D0Z6T1); format: cell-based, E. coli
[4] = system: enterotoxin LT-I; parameters: species or system E. coli; details: in vivo, po
[5] = molecular target: enterotoxin CFA/II(LT-II) (Escherichia coli, UniProt P0CK94); format: cell-based, E. coli

B1: lactoferrin (protein, UniProt P24627 20-708, looked up)
Lactotransferrin: APRKNVRWCTISQPEWFKCRRWQWRMKKLGAPSITCVRRAFALECIRAIAEKKADAVTLDGGMVFEAGRDPYKLRPVAAEIYGTKESPQTHYYAVAVVKKGSNFQLDQLQGRKSCHTGLGRSAGWIIPMGILRPYLSWTESLEPLQGAVAKFFSASCVPCIDRQAYPNLCQLCKGEGENQCACSSREPYFGYSGAFKCLQDGAGDVAFVKETTVFENLPEKADRDQYELLCLNNSRAPVDAFKECHLAQVPSHAVVARSVDGKEDLIWKLLSKAQEKFGKNKSRSFQLFGSPPGQRDLLFKDSALGFLRIPSKVDSALYLGSRYLTTLKNLRETAEEVKARYTRVVWCAVGPEEQKKCQQWSQQSGQNVTCATASTTDDCIVLVLKGEADALNLDGGYIYTAGKCGLVPVLAENRKSSKHSSLDCVLRPTEGYLAVAVVKKANEGLTWNSLKDKKSCHTAVDRTAGWNIPMGLIVNQTGSCAFDEFFSQSCAPGADPKSRLCALCAGDDQGLDKCVPNSKEKYYGYTGAFRCLAEDVGDVAFVKNDTVWENTNGESTADWAKNLNREDFRLLCLDGTRKPVTEAQSCHLAVAPNHAVVSRSDRAAHVKQVLLHQQALFGKNGKNCPDKFCLFKSETKNLLFNDNTECLAKLGGRPTYEEYLGTEYVTAIANLKKCSTSPLLEACAFLTR
neutralization of the toxicity of CT against CHO-Kl cells (morphological alteration) [1]: neutralized the toxicity
interference with the binding of the cholera toxin B-subunits to GM1 [2]: interfered with the binding
neutralization of the toxicity of LT-I against CHO-Kl cells (morphological alteration) [3]: neutralized the toxicity
Rate of diarrhea [4]: 40% and 20%
neutralization of the toxicity of LT-II against CHO-Kl cells (morphological alteration) [5]: neutralized the toxicity
